Laboratory results: patent US10087225B2, “Formulation of MK2 inhibitor peptides” (MOERAE MATRIX, INC., priority 2015, dated 2018)

Experiments:
Assay in all cases: Kinase Profiling Assay
Type in all cases: biochemical
Details in all cases: for % activity: 100 μM
[1] = molecular target: Ax1(h) (Homo sapiens, UniProt P30530)
[2] = molecular target: CHK2(I157T)(h) (Homo sapiens, UniProt O96017, I157T)
[3] = molecular target: CLK3(h) (Homo sapiens, UniProt P49761)
[4] = molecular target: T1, DCAMKL2(h) (Homo sapiens, UniProt Q8N568)
T1 sequence (Q8N568 1-766): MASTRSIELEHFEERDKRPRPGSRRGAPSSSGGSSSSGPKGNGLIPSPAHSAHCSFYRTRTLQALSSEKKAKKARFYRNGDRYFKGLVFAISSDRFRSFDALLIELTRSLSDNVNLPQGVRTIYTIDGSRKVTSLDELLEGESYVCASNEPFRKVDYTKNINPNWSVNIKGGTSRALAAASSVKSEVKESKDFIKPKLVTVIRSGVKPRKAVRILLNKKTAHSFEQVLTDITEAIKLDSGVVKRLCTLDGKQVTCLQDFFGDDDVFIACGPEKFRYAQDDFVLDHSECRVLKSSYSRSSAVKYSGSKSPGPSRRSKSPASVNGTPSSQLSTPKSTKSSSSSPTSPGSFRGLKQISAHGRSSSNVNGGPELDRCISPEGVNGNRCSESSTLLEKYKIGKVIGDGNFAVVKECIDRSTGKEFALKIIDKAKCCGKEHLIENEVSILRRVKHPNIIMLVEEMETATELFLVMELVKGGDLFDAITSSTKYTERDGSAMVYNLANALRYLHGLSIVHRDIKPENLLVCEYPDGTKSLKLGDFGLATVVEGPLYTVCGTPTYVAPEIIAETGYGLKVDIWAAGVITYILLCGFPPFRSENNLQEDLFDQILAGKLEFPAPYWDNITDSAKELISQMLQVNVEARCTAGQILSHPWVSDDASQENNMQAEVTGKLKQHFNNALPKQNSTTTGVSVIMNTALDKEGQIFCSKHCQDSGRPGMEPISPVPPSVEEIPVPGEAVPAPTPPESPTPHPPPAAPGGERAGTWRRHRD

[5] = molecular target: T2, DMPK(h) (Homo sapiens, UniProt Q09013)
T2 sequence (Q09013 1-629): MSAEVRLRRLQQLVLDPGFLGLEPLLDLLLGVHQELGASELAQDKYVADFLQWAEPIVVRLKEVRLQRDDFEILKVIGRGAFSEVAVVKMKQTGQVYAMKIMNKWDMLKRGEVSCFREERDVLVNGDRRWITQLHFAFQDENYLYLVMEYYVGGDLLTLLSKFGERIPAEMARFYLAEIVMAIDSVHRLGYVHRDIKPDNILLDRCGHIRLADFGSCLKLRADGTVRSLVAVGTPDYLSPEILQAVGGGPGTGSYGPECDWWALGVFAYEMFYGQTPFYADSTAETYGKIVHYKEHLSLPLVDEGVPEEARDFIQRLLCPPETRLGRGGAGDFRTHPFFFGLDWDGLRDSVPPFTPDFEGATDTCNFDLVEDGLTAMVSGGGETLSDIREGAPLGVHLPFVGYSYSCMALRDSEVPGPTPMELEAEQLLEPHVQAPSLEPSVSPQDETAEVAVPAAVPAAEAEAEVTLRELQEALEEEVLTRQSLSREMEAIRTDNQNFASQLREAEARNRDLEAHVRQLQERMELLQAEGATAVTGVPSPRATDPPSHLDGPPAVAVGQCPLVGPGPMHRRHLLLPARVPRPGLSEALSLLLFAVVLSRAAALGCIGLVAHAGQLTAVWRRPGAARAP

[6] = molecular target: T3, EphB4(h) (Homo sapiens, UniProt P54760)
T3 sequence (P54760 16-987): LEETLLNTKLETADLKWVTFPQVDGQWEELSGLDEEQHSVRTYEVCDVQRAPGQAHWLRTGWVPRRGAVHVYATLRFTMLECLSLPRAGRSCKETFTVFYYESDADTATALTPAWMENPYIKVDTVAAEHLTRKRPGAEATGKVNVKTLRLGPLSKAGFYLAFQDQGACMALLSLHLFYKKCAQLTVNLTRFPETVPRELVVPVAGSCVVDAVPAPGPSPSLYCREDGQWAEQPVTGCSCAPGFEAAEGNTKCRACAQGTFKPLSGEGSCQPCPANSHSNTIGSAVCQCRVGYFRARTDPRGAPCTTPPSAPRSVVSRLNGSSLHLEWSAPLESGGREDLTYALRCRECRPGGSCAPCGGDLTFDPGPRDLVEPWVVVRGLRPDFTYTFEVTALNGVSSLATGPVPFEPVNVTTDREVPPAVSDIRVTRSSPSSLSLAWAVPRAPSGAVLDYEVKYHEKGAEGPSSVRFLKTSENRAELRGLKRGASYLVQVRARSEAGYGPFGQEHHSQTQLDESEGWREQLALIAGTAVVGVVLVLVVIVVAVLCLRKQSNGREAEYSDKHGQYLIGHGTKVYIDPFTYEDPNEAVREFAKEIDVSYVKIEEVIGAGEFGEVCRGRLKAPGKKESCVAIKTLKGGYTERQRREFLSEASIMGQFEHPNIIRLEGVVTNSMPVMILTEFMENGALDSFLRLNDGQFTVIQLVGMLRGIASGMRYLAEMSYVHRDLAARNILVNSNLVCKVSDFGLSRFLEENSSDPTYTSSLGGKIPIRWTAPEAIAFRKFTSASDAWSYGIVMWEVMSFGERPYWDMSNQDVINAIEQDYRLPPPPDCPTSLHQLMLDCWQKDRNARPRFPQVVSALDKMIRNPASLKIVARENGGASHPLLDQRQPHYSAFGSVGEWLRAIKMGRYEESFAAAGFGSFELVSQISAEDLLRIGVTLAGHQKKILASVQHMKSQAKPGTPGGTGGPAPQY

[7] = molecular target: GRK6(h) (Homo sapiens, UniProt P43250)
Chain of GRK6(h) (P43250 whole entry): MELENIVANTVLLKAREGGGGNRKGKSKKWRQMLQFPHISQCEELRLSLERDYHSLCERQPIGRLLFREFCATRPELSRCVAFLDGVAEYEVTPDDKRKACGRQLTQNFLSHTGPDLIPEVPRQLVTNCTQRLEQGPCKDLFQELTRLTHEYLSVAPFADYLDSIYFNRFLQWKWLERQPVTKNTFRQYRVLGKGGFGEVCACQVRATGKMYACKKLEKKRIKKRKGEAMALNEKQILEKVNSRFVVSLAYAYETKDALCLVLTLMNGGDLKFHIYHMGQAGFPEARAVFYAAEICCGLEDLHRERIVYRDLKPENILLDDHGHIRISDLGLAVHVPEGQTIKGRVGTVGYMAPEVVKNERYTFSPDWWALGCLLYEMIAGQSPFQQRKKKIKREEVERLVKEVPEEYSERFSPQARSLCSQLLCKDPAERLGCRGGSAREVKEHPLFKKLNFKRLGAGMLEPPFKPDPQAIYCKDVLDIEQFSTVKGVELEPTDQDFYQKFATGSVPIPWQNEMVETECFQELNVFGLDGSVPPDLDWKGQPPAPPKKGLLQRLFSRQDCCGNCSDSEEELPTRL

[8] = molecular target: Ret(h) (Homo sapiens, UniProt P07949)

Chain of CHK2(I157T)(h) (O96017 whole entry I157T): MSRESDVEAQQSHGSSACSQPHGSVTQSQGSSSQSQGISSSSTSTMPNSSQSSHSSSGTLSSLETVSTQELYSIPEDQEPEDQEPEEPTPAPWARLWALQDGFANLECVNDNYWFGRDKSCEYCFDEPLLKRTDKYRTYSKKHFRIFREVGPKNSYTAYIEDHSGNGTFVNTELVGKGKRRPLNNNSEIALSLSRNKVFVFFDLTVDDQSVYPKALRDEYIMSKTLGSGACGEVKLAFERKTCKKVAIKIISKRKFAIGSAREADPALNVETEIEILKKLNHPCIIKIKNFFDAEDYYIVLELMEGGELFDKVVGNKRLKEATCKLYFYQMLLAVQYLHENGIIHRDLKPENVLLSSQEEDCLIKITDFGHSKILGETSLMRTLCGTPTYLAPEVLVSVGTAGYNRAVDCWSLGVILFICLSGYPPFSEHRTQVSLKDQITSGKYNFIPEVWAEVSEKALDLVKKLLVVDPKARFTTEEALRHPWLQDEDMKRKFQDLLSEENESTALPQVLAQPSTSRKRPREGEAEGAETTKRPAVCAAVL
Chain of CLK3(h) (P49761 whole entry): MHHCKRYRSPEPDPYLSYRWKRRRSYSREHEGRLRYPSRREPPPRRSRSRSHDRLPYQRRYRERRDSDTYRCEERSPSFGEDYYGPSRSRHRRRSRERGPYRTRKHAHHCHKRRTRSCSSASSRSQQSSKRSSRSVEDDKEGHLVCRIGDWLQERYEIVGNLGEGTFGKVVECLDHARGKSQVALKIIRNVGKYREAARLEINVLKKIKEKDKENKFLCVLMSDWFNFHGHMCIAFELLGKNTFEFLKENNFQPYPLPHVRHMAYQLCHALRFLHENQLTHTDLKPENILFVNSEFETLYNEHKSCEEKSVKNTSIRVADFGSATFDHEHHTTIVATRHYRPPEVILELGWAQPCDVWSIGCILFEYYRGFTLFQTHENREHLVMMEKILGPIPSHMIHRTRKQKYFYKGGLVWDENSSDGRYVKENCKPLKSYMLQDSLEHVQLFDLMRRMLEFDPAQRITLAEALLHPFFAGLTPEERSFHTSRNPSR

Substance	activity at 100 µM [1]	activity at 100 µM [2]	activity at 100 µM [3]	activity at 100 µM [4]	activity at 100 µM [5]	activity at 100 µM [6]	activity at 100 µM [7]	activity at 100 µM [8]	% activity [1]	% activity [2]	% activity [3]	% activity [4]	% activity [5]	% activity [6]	% activity [7]	% activity [8]
H-YARAAARQARAKALARQLGVAA-OH [MMI-0100]	81%	97%	108%	146%	60%	62%	131%	108%	–	–	–	–	–	–	–	–
HRRIKAWLKKIKALARQLGVAA (Mammalian) [MMI-0500]	–	–	–	–	–	–	–	–	12%	3%	76%	56%	12%	38%	174%	174%
YARAAARQARAKALNRQLGVA (Mammalian) [MMI-0200]	–	–	–	–	–	–	–	–	99%	85%	76%	131%	66%	131%	132%	96%
